In publication doi:10.1101/2020.08.20.256677v1 (biorxiv, 2020):

B1: DnfA (Alcaligenes ammonioxydans) (protein)
chain: MTIKSYETDDAVRNMLQKLSVLWKNRAAVNQELPDYNNLAFDPNKADFSECLLPFREHQAWLEAPEELKSQCLSYAWGIYNLKTIYVECNVVTPSCEDIIKTPPPSANRNLLQDVMSQALLDEALHTRMSIMACNYIYSMRGLQPLDFTNFNLVQWRNDILSQCSSESERRLTRFAIACASETLITDYLKTMAEDKSIQTICHEVTRTHAMDEWSHSSVFSFVASDIIHGLSQKEREHMRAVILRTVEMFANNEMGAWEKVFSMVNFPNARDILHDTGDSNEIGVYTGSVESLIERIGLNSKSGQAQAQDEQQEALQ

Assays:
DnfA = DnfA (Alcaligenes ammonioxydans, UniProt A0ABX8SXK4); test: biochemical
purified protein = substrate: NO; test: purified protein; settings: 480 μM FAD, 10 mM NADH, 21% O2, 0.6 μM DnfA, 30 °C, 25-400 μM NH2OH

Molecule	Kd (DnfA) [nM]	Km (purified protein) [µM]	kcat (purified protein) [s⁻¹]
NO [hydroxylamine]	160 ± 20	–	–
B1	–	48.1 ± 6.0	0.31 ± 0.02
